Measured values published in patent US12637685B2, “Method for rapid genome modification in recalcitrant plants” (KWS SAAT SE & Co. KGaA, priority 2020, dated 2026).

Legend:
Type in all cases: cell-based
[1] = test system: CRISPR target m7GEP1 (maize HMG13 gene) in corn A188 immature embryos; experiment: SDN-1 efficiency after co-delivery of TSA with editing plasmids, target m7GEP1, Taqman ddPCR (Example 18); conditions: 15 ng TSA co-bombarded, 48 hours after bombardment, 6 repeats
Description: (§1) The amounts of TSA used for a bombardment with 100 μg of gold particles (approximately, 4.0-5.0×10^7 gold particles size of 0.6 micron) is 15 ng. Specifically, the plasmid DNA and TSA were co-coated onto gold particles for bombardment as follows. For 10 shots, 100 microlite (μl) of 10 mg/ml 0.6 μm gold particle in 50% (v/v) glycerol particle stock solution (1.0 mg of the gold particles in total for 10 shots, and 100 μg per shot) was pipetted into a clear low-retention microcentrifuge tube. Sonicate for 15 seconds to suspend the gold particles. While vortex at a low speed, add the following in order: • 1.0 μg of pGEP1054 (FIG. 15), 1.5 μg of pGEP842 (FIG. 2) or pGEP1067 (FIG. 32) • 100 μl of 2.5 M CaCl2 (pre-cold on ice) • 40 μl of 0.1 M cold spermidine Close the lid and vortex the tube for 5 minutes at room temperature and spin down the DNA-coated gold particles. After washing in 1000 μl of 100% ethanol (pre-cold at −20° C.) for two times, the pellet was resuspended in 120 μl of 100% ethanol. Finally, 150 ng of TSA was added into the resuspended gold particle solution carefully. While vertexing at a low speed, pipet 10 μl of TSA co-coated gold particles with a wide open 20 μl tip from the tube onto the center of the macrocarrier evenly. Since the particles tend to form clumps at this point, get the gold particles onto the macrocarriers as soon as possible. […]

[2] = test system: CRISPR target m7GEP22 (maize HMG13 gene) in corn A188 immature embryos; experiment: SDN-1 efficiency after co-delivery of TSA with editing plasmids, target m7GEP22, Taqman ddPCR (Example 18); conditions: 15 ng TSA co-bombarded, 48 hours after bombardment, 6 repeats
Description: as §1

[3] = test system: maize HMG13 gene in maize A188 immature embryos; experiment: Genome editing SDN-1 in regenerated T0 plants of maize A188 (Example 5); conditions: for Total SDN-1: T0 events; for Bi-SDN-1: T0 events with bi-allelic SDN-1; for Mon-SDN-1: T0 events with mono-allelic SDN-1; for % SDN-1/IE: per immature embryo initially used; for % SDN-1/Event: per regenerated T0 event; for Total Events: regenerated T0 events, co-bombarded with pGEP837 and pGEP842
Description: Specifically, construct pGEP837 (SEQ ID NO: 52, FIG. 1) and the crRNA construct pGEP842 (SEQ ID NO: 53, FIG. 2) were co-bombarded with the different boosters as indicated into maize A188 immature embryos by particle bombardment. For each bombardment (shot), 100 ng of plasmid pGEP837 were cocoated with 150 ng of plasmid pGEP842 and 100 ng each of different boost constructs onto 100 μg of 0.4 μm gold particles using calcium-spermidine method. Three bombardments (shots) per sample plate were performed.
(§2) After bombardment the embryos were remained on the osmotic medium (N60SM) for another 16-20 hours. The embryos were transferred from the osmotic medium onto embryogenic callus induction medium (e.g. N6_5Ag) in a petri dish plate (100×25 mm) with scutellum-face-up, at a density of 12-15 embryos per plate. The embryos were incubated at 27° C. in dark for the embryogenic callus induction. After embryogenic callus induction in N6_5Ag medium for 10-14 days the induced calluses were transferred onto embryo maturation medium MRM1 in petro dish (100×25 mm), and cultured at 27° C. in dark for 10 days, and then at 25° C., weak light (20-50 μmol m^−2 s^−1) for 2-4 days. The mature somatic embryos were then transferred onto MSO medium (see below) in phytotray for plant outgrowth and further development for 5-7 days. A 5-10 mm leaf tip from each of the leaves of a T0 plant is collected for DNA extraction. The targeted genome editing SDN-1 in the regenerated T0 plants are screened by TaqMan real-time PCR (qPCR), and further conformed by Sanger sequencing trace decomposition analysis.

[4] = test system: maize HMG13 gene in immature embryos of maize recalcitrant elite 4V-40290; experiment: Genome editing SDN-1 in T0 plants of elite 4V-40290 (Example 13); conditions: for Bi-SDN-1 / Mon-SDN-1 / Total SDN-1: T0 events; for % SDN-1/IE: per immature embryo initially used; for % SDN-1/Event: per regenerated T0 event; for Total Event: regenerated T0 events, co-bombarded with pGEP837 and pGEP842
Description: as §2
(§3) The workflow was as described in Example 6. For immature embryo isolation, osmotic treatment, and bombardment, please see the description in Example 1. Specifically, genome editing constructs pGEP837 (SEQ ID NO: 52, FIG. 1) and pGEP842 (SEQ ID NO: 53, FIG. 2) were co-bombarded with the different boosters as indicated into the immature embryos of elite 4V-40290 by particle bombardment. For each bombardment (shot), 100 ng of plasmid pGEP837 and 150 ng of plasmid pGEP842 were cocoated with 100 ng each of different boost constructs onto 100 μg of 0.4 μm gold particles using calcium-spermidine method. Three bombardments (shots) per sample plate were performed. The bombarded embryos were transformed onto the embryogenic callus induction medium 16-20 hours after bombardment.
(§4) For plant regeneration, and genome editing SDN-1 screen and conformation in regenerated T0 plants please see Example 5 and Example 9.

[5] = test system: maize HMG13 gene in immature embryos of maize recalcitrant elite 2V-20195; experiment: Genome editing SDN-1 in T0 plants of elite 2V-20195 (Example 12)
Description: as §2
as §3, with “embryos of maize elite 2V-20195” for “embryos of elite 4V-40290”, “maize elite 2V-20195 by particle” for “of elite 4V-40290 by particle”, “pGEP842 were co-coated with 100” for “pGEP842 were cocoated with 100”
as §4

CC(/C=C/C(=O)NO)=C\[C@@H](C)C(=O)c1ccc(N(C)C)cc1 [TSA, trichostatin A] was tested, and the “increase in the SDN-1 efficiency compared to the control without TSA (CK)” value [1] was 61.5% and the “increase in the SDN-1 efficiency compared to the control without TSA (CK)” value [2] was 354.5%.

B1: RBP8: artificial regeneration booster protein, SEQ ID NO: 39 (CDS SEQ ID NO: 27), construct pABM-BdEF1_RBP8 (protein)
chain: MVSKGEEVIKEFSGSTRWNPTAEQVKVLREIYYRAGLRTPSADQIRQISSQLKRYGKVEGKNVFYWFQNHKARERQKKRLSTVGSAGSAAGSGEFRHVKTLPLFPLHNNEDSGSGLDLDLNLELRLSATAAATSGSQRASALDLDLELRLGFALGNESCGLHDN
B1 was tested, and the “Total SDN-1” value [3] was 9, the Bi-SDN-1 [3] was 5 and the Mon-SDN-1 [3] was 4. For the same molecule, the “% SDN-1/IE” value [3] was 39.1%, the “% SDN-1/Event” value [3] was 13.4% and the “Total Events” value [3] was 67. The Bi-SDN-1 [4] was 1, the Mon-SDN-1 [4] was 6 and the “Total SDN-1” value [4] was 7. The “% SDN-1/IE” value [4] was 28.0%, the “% SDN-1/Event” value [4] was 20.6% and the “Total Event” value [4] was 34.

B2: RBP2: artificial regeneration booster protein, SEQ ID NO: 33 (CDS SEQ ID NO: 21), expressed from construct pABM-BdEF1_RBP2 (protein)
chain: MESGSGTAAGSGYVYRQSGSTRWNPTAEQLSLLKELYYRNGIRTPSADQIRQISARLSRYGKIEGKNVFYWFQNHKARERQKKRLSTVGCDPALIEMGNVASLEFGTESALESLSSGPSSELREAPTRKFYEKKTVGENSTIINPVEQNCTLSCGTSQEFQYAVDSRRVMKAMEEKQATDDEPDGNKWTESNRHVKTLPLFPLHNNEDQTLIKSDKEIYCLGSCEKKMDLSPLGHSGSQRASALDLCLSLGNESCGLHDN
B2 was tested, and the Bi-SDN-1 ([5]; T0 events) was 1, the Mon-SDN-1 ([5]; T0 events) was 0 and the “Total SDN-1” value ([5]; T0 events) was 1. The “% SDN-1/IE” value ([5]; per immature embryo initially used) was 2.1%, the “% SDN-1/Event” value ([5]; per regenerated T0 event) was 6.3% and the “Total Event” value ([5]; regenerated T0 events, co-bombarded with pGEP837 and pGEP842) was 16. For the same molecule, the “Total SDN-1” value [3] was 34, the Bi-SDN-1 [3] was 20 and the Mon-SDN-1 [3] was 14. The “% SDN-1/IE” value [3] was 22.7%, the “% SDN-1/Event” value [3] was 14.3% and the “Total Events” value [3] was 237. For the same molecule, the Bi-SDN-1 [4] was 2, the Mon-SDN-1 [4] was 0 and the “Total SDN-1” value [4] was 2. For the same molecule, the “% SDN-1/IE” value [4] was 9.1%, the “% SDN-1/Event” value [4] was 13.3% and the “Total Event” value [4] was 15.

B3: RBP7: artificial regeneration booster protein, SEQ ID NO: 38 (CDS SEQ ID NO: 26), construct pABM-BdEF1_RBP7 (protein)
chain: MVSKGEEVIKEFSGSTRWNPTAEQLSLLKELYYRNGIRTPSADQIRQISARLSRYGKIEGKNVFYWFQNHKARERQKKRLSTVGCDPALIEMGNVASLEFGTESALESLSSGPSSELREAPTRKFYEKKTVGENSTIINPVEQNCTLSCGTSQEFQYAVDSRRVMKAMEEKQATDDEPDGNKWTESNRHVKTLPLFPLHNNVETLPLFPEDSGSLDLELELGFASGGSAGSVDTLPLFPREAAGSGEFATAAATSGSQRASALDLCLSLGNESCGLHDN
With B3 the “Total SDN-1” value [3] was 6, the Bi-SDN-1 [3] was 5 and the Mon-SDN-1 [3] was 1. The “% SDN-1/IE” value [3] was 19.4%, the “% SDN-1/Event” value [3] was 12.0% and the “Total Events” value [3] was 50.

B4: RBP5: artificial regeneration booster protein, SEQ ID NO: 36 (CDS SEQ ID NO: 24), construct pABM-BdEF1_RBP5 (protein)
chain: MVSKGEEVIKEFSGSTRWNPTAEQLSLLKELYYRNGIRTPSADQIRQISARLSRYGKIEGKNVFYWFQNHKARERQKKRLSTVGCGSAGSAAGSGEFRHVKTLPLFPLHNNVETLPLFPEDSGSLDLELELGFASATAAATSGSQRASALDLCLSLGNESCGLHDN
With B4 the “Total SDN-1” value [3] was 11, the Bi-SDN-1 [3] was 8 and the Mon-SDN-1 [3] was 3. For the same molecule, the “% SDN-1/IE” value [3] was 23.4%, the “% SDN-1/Event” value [3] was 4.9% and the “Total Events” value [3] was 224.
